Measurements published in PMC3231237.

What was measured:
Case12 [1] = test: SEC-MALS; sensor at 16 mg/mL, Ca2+-saturated (5 mM CaCl2 added, 1 h); Superdex 200, 50 mM Tris-HCl, 300 mM NaCl, pH 7.4, 1 mM CaCl2; monomer to dimer
Case12 [2] = test: SEC-MALS; sensor at 4 mg/mL, Ca2+-saturated (5 mM CaCl2 added, 1 h); Superdex 200, 50 mM Tris-HCl, 300 mM NaCl, pH 7.4, 1 mM CaCl2; monomer to dimer
Case16 [3] = test: SEC-MALS; sensor at 16 mg/mL, Ca2+-saturated (5 mM CaCl2 added, 1 h); Superdex 200, 50 mM Tris-HCl, 300 mM NaCl, pH 7.4, 1 mM CaCl2; monomer to dimer
Case16 [4] = test: SEC-MALS; sensor at 4 mg/mL, Ca2+-saturated (5 mM CaCl2 added, 1 h); Superdex 200, 50 mM Tris-HCl, 300 mM NaCl, pH 7.4, 1 mM CaCl2; monomer to dimer

Case12
percent dimer (Case12 [1]): 22%
stoichiometry N (Case12 [1]): 2
percent dimer (Case12 [2]): 3%

Case16
percent dimer (Case16 [3]): 26%
stoichiometry N (Case16 [3]): 2
percent dimer (Case16 [4]): 2%
